In brackets after ≈: the same amount, converted by molar mass. One block for each molecule: values may come before it.
Columns and labels:
[1] = pH 8
physchem = conditions: pH 9.5
[2] = Enzyme screen for hydrolysis of lovastatin or lovastatin acid; format: biochemical; conditions: 2.5 mM substrate, 100 mM phosphate buffer/co-solvent pH 7 to 8, 30° C., 48 h; confirmed at 1 mM
Description: (§1) Any method for screening for enzymes for use in the methods of the invention, e.g., enzymes for the hydrolysis of lovastatin, lovastatin acid, 4-acetyl simvastatin or simvastatin, can be used, and, these methods are well known in the art. For example, in one exemplary set of screen conditions used to determine an enzyme(s) to be used in a method of the invention comprises use of 2.5 mM substrate, 100 mM phosphate buffer/co-solvent pH 7 to pH 8, 30° C., 48 h, with the following composition: (i) lovastatin or simvastatin in MTBE/buffer, (ii) lovastatin or simvastatin in toluene/buffer, (iii) lovastatin acid or simvastatin acid in 10% methanol/buffer. Screen results were confirmed at 1 mM substrate. […] SEQ ID NO:4 and SEQ ID NO:2 were further evaluated at 25, 50 and 100 mM lovastatin acid in 10% MeOH/buffer, pH 9, the more soluble lovastatin acid being used as substrate for convenience.

[3] = Enzyme screen for hydrolysis of simvastatin; format: biochemical; conditions: 2.5 mM substrate, 100 mM phosphate buffer/co-solvent pH 7 to 8, 30° C., 48 h; confirmed at 1 mM
Description: as §1

[4] = Comparison of genomic clones for hydrolysis of lovastatin acid under standard conditions; format: biochemical; conditions: same total protein concentration or same activity normalized against MUB
From the text: Genomic clones comprising sequences encoding enzymes having sequences as set forth in SEQ ID NO:4, SEQ ID NO:2, SEQ ID NO:6 (e.g., encoded by exemplary SEQ ID NO:3, SEQ ID NO:1, and SEQ ID NO:5, respectively), were compared for the hydrolysis of lovastatin acid under standard conditions (the same total protein concentration, or the same enzyme activity normalized against the fluorescent substrate, methylumbelliferyl butyrate (MUB)).

[5] = Large-scale hydrolysis of lovastatin, specific activity of esterase; format: biochemical; conditions: 100 g scale, 0.5 M lovastatin
Description: The in situ hydrolysis of lovastatin with SEQ ID NO:4 was optimized such that insignificant amounts of NaCl generated: 0.85 g lovastatin in MeOH and equimolar NaOH added. Clarified lysate of E. coli containing SEQ ID NO:4 was added to lovastatin acid. […] See FIG. 27 for an illustration summary of the results.
The results of Response Surface Analysis (RSA) can be applied to large-scale hydrolysis of lovastatin, e.g., using a protocol as illustrated in FIG. 28: • Reaction performed successfully on 100 g scale (0.5 M); • 97.5% conversion in 27 h; • Productivity: x g/g esterase/h; • Specific activity: 0.084 μmol/mg esterase/min.

[6] = Heat pre-treatment of lovastatin esterase, then lovastatin hydrolysis; format: biochemical; conditions: 60° C. for 30 min, centrifuged, supernatant used
From the text: Heat treatment has often been used as a convenient method to purify crude enzyme preparations when there is differential thermal stability between the desired enzyme and other contaminating proteins.

elimination [1]: 13%
Molecule: CCC(C)(C)C(=O)O[C@H]1C[C@@H](C)C=C2C=C[C@H](C)[C@H](CC[C@@H]3C[C@@H](OC(C)=O)CC(=O)O3)[C@H]21 [4-acetyl simvastatin]

Molecule: C[C@H]1C=C2C=C[C@H](C)[C@H](CC[C@@H](O)C[C@@H](O)CC(=O)O)C2[C@@H](O)C1 (stereo partly drawn) [Triol acid]
solubility (physchem): ~200 mM (≈ 67.7 mg/mL)

activity for the hydrolysis of lovastatin or lovastatin acid [2]: active
activity for the hydrolysis of simvastatin [3]: showed activity
activity of heat pre-treated versus untreated enzyme [6]: no difference in activity
B1: SEQ ID NO:4: novel lovastatin esterase, family VII esterase with SXXK motif, encoded by SEQ ID NO:3 (protein)
chain: MEIHGTCDPKFHLVRQEFERNLRERGEVGASVCVTLHGETVVDLWGGMARADTQTPWTAETVSIVFSSTKGATALCAHMLASRGQLDLDAPVATYWPEFAQAGKARIPVKMLLNHQAGLPAVRTPLPQGAYADWELMVNTLAKEEPFWEPGTRNGYHALTMGWLVGEVVRRVSGKSLGTFFQEEIARPLGLDFWIGLPAEQEARVAPMIAAEPDPQSLFFQEVAKPGALQSLVLLNSGGYMGAQPEYDSRAAHAAEIGAAGGITNARGLAGMYAPLACGGKLKGVELVSPDMLARMSRVASATGRDAVLMMPTRFALGFMKSMDNRREPAGVQDSALFGEEAFGHVGAGGSFGFADPKAGMSFGYTMNRMGLGAGLNPRGQSLVDATYRSLGYQSDASGAWT
modifications: Unkown; Soil sample
activity for hydrolysis of lovastatin acid compared among genomic clones [4]: best activity
Specific activity [5]: 0.084 μmol/mg esterase/min

activity for the hydrolysis of lovastatin or lovastatin acid [2]: active
B2: SEQ ID NO:6: feruloyl esterase encoded by SEQ ID NO:5 (protein)
chain: MRSAARISVAAVAFLCLLLTTRVSAQIVPAMECADLANQQLPNTTITSAQTVTTGSLTPPGSTNPITDLPPFCRVTGAIAPTSESHILFEVWLPLDKWNGKFAGVGNGGWAGIISFGALGSQLKRGYATASTNTGHEAAPGMNAARFAFEKPEQLIDFAYRSQHETALKAKALVQAFYGKPPEHSYFIGCSSGGYQGLMEAQRFPADYDGIVAGMPANNWTRLMAGDLDAILAVSVDPASHLPVSALGLLYRSVLAACDGIDGVVDGVLEDPRRCRFDPAVLMCKADQNPDGCLTPAQVEAARRIYGGLKDPKTGAQLYPGLAPGSEPFWPHRNPANPFPIPIAHYKWLVFADPNWDWRTFKFTDPADYQAFLNAEATYAPTLNATNPDLREFSRRGGRLIQYHGWNDQLIAPQNSIDYYESVLSFFGSGKQDRAQTVREVQSFYRLFMAPGMAHCGGGTGPNSFDMLDALEKWVEGGIAPERVLATRSINGVVDRLRPLCPYPQVAVYKGHGDTNDAANFVCRD
modifications: Unkown; Soil sample

activity for the hydrolysis of lovastatin or lovastatin acid [2]: active
B3: SEQ ID NO:2: feruloyl esterase encoded by SEQ ID NO:1 (protein)
chain: MSLCVIRFIAGTLVLVASVESAVAQQACADLMGLELPYTTITSAAVATEGPIPQPAIFGSTDPIVAPERCEVRAVTRPTKDSEIRIELWLPLSGWNGKYLQIGSGGWAGSINRTGLIGPLQRGYAVAATDNGHISEGLVPDASWAIGHPQKLIDFGYRAVHETSVQAKAILRAYFGRGQDLSYFSGCSNGGREALMEAQRYPEDFEGIIAGAPANNWSRLFTGFVWNERALADDPIPPAKLTAIQAAAIAACDTLDGVEDGLIENPRACSFDPRSMVCTADDASDCLTEGQVATLHRIYSGPTNPRTGERIFPGYPMGTEAVPGGWVPWIVSASSEVPSIQASFGNSYYGHAVFEQSNWDFRTLDFDQDVAFGDAKAGPVLNATNPDLRSFRANGGKLIQYHGWGDAAITAFSSIDYYENVRAFLDRFPDPRSENTDIDGFYRLFLVPGMGHCSGGIGPSSFGNGFRSARTDAEHDLLSALEAWVERDTAPERLIGTGTAVGDPTATLTRPLCPYPRTARYLGSGNSNDAANFECALPAGVQ
modifications: Unkown; Soil sample

Reference: patent US7700329B2, “Methods for making simvastatin and intermediates” (priority 2003, dated 2010)
